Test results published in paper PMC10179125, “Populus euphratica GLABRA3 Binds PLDδ Promoters to Enhance Salt Tolerance”.

T1: PeGLABRA3 (Populus euphratica, UniProt A0AAJ6UG00 1-628)
T1 sequence: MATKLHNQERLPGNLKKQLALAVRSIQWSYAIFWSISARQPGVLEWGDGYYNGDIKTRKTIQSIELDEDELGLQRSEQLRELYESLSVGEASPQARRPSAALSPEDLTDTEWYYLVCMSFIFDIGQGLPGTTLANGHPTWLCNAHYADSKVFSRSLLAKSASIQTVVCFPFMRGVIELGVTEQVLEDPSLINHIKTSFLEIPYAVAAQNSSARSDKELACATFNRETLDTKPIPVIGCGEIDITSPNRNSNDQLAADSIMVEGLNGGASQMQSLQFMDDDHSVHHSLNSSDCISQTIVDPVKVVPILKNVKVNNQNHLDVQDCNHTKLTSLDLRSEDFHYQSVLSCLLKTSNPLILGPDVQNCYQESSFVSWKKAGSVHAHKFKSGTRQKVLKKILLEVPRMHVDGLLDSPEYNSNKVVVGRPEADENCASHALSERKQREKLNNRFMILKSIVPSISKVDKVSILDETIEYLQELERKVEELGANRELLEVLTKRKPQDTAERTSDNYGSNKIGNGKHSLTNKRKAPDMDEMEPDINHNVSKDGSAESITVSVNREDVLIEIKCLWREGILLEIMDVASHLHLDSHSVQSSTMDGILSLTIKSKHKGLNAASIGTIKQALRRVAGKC


Assays:
PeGLABRA3 [1] = molecular target: T1, PeGLABRA3; experiment: EMSA; EMSA on 6% polyacrylamide gel, biotin probes, cold probe 10x; binding buffer, pH, salt and temperature not stated; details: protein: recombinant; tags: C-terminal His (pET28a); chain copies: 2; label: 3' biotin; blunt
PeGLABRA3 [2] = molecular target: T1, PeGLABRA3; experiment: competition; 10x unlabeled probe vs biotin N1; EMSA on 6% polyacrylamide gel, biotin probes, cold probe 10x; binding buffer, pH, salt and temperature not stated; details: protein: recombinant; tags: C-terminal His (pET28a); chain copies: 2; blunt

Binder | binding result (PeGLABRA3 [1]) | binding result (PeGLABRA3 [2])
AtPLDδ promoter G-box probe (dsDNA) DNA 1: AACTCCCATCACGTCGTCCCTCCACCTGTCCTCTCTTCTCCTTCCTTGCT DNA 2: AGCAAGGAAGGAGAAGAGAGGACAGGTGGAGGGACGACGTGATGGGAGTT | binds | 
PePLDδ promoter G-box probe (dsDNA) DNA 1: CGCTGATCCGGGTAACTGAAATCAGCTGCTGAGAGATGGAAGAGGAGAAT DNA 2: ATTCTCCTCTTCCATCTCTCAGCAGCTGATTTCAGTTACCCGGATCAGCG | binds | 
PePLDδ promoter G-box cold probe (dsDNA) DNA 1: CGCTGATCCGGGTAACTGAAATCAGCTGCTGAGAGATGGAAGAGGAGAAT DNA 2: ATTCTCCTCTTCCATCTCTCAGCAGCTGATTTCAGTTACCCGGATCAGCG |  | binds
